{
  "source": "patent US5908827",
  "about": "“Protein from urine named component B” (Applied Research Systems ARS Holding N.V., dated 1999)",
  "binders": {"B1": {"name": "Component B (other)", "chain": "LKCYTCKEPMTSASCRTITRCKPEDTACMTTLVTVEAEYPFNQSPVVTRSCSSSCVATDPDSIGAAHLIFCCFRDLCNSEL", "modifications": "SO4 group bound to Tyr (39); five disulfide bridges (urinary material)"}},
  "target": "TGF-alpha receptor obtained from A 431 cell membranes (Homo sapiens (Human), UniProt P00533)",
  "assay": "displacement of I^125-TGF-alpha from its receptor on A 431 cell membranes (radioligand competition)",
  "data": [
    {"binder": "B1", "values": [
      {"measurement": "Ki", "value": 0.077, "unit": "nM"}
    ]}
  ]
}
